Data on 21 sequences can be found in the supplement of paper PMC9170038.

The data set concerns MS2 coat protein. Put plainly: apparent KD of MS2 coat protein; designed switch direction (-1 OFF switch, 1 ON switch): 1; higher = weaker reporter binding. The essentials: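 Three titration conditions were used: no input, 200 uM small-molecule ligand, and an oligonucleotide input. In each, SNAP-549-labelled MS2 coat protein was raised from 0.7 or 1.5 nM, doubling, to 3 µM over designed RNA switches transcribed on Illumina chips by stalled E. coli RNA polymerase. Curve fits of normalised cluster fluorescence gave values whose per-design median over clusters is the apparent KD.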

Where [1] appears, read: Eterna round: R95, input ligand: FMN 200 uM.
Where [2] appears, read: Eterna round: R95, input ligand: microRNA oligo, concentration not stated.
Where [3] appears, read: Eterna round: R95, input ligand: none.
The mark [4] stands for this setting: input ligand: microRNA oligo, concentration not stated.

As for “AUGGUGCAGGUACAGGAUAUGUUGCUCGUAACAUGAGGAUCACCCAUGUACCUAUGAGAAUAAAUGCAGAAGGGUGCACACCACG [Mat - Same State 2 - Mod of UCT - D92] (puzzle: Same State 2)”, the “apparent KD of MS2 coat protein” value runs as follows: under setting [1], 57 nM; under setting [2], 3220 nM; under setting [3], 156 nM.

Consider “AUGGUGCAGGUACAGGAUAUGUUGCUCGUAACAUGAGGAUCACCCAUGUACCUAUGAGAUUAAAUGCAGAAGGGUGCACACCACU [Mat - Same State 2 - Mod of UCT - D89] (puzzle: Same State 2)”, for which the “apparent KD of MS2 coat protein” value runs as follows: under setting [1], 77.1 nM; under setting [2], 613 nM; under setting [3], 158 nM.

As to “AUUAAACAUGAGGAUCACCCAUGUCAACAAAGUCGAGGAUAUGGGCAUAUUAUAUAAUAACCAGAAGGCGAAUAAU [salish99_ss1_r3_084] (puzzle: Same State 1)”, the “apparent KD of MS2 coat protein” value under setting [1] was 11.1 nM, the “apparent KD of MS2 coat protein” value under setting [2] was found to be 12.8 nM and the “apparent KD of MS2 coat protein” value under setting [3] is 13.8 nM.

Take “AUUAUUAAUGCAGGAUAUGAUUAACAUGAGGAUCACCCAUGUGGUGUUGUGAGUAAGGAGAGUGAUCAGAAGGGCAUUUUGUUU [JMF's solution 12] (Eterna round: R96, puzzle: Same State NG 2)”: the “apparent KD of MS2 coat protein” value runs as follows: (input ligand: FMN 200 uM) 1130 nM; under setting [4], 526 nM; (input ligand: none) 591 nM.

With “AUUAUUAAUGCAGGAUAUGAUUAACAUGAGGAUCACCCAUGUGGUGUUGUGAGUAAGGAGAGUGAUCAGAAGGGCAUUUUUUCU [JMF's solution 17] (Eterna round: R96, puzzle: Same State NG 2)”, the “apparent KD of MS2 coat protein” value (input ligand: FMN 200 uM) worked out at 558 nM, the “apparent KD of MS2 coat protein” value under setting [4] was determined as 442 nM and the “apparent KD of MS2 coat protein” value (input ligand: none) stood at 585 nM.

For the sequence “AUUCGUUUGAUAGGAUAUCACUUUACAUGAGGAUCACCCAUGUUCACCACGCUGGUUUCUUAUACUGAGAAGGAUCUUGAUGAC [JR_SSNG2_Sub010] (Eterna round: R96, puzzle: Same State NG 2)”, the “apparent KD of MS2 coat protein” value (input ligand: FMN 200 uM) was 19.5 nM, the “apparent KD of MS2 coat protein” value under setting [4] is 17.1 nM and the “apparent KD of MS2 coat protein” value (input ligand: none) amounted to 31.3 nM.

On to “AUUGCUUACGCAGGAUAUGAUGCGAAAAUUGCGUCAGAAGGGUGAAGUAUCUCAUUGCAACAGGACAUGAGGAUCACCCAUGUC [SameState NG1 #99] (Eterna round: R96, puzzle: Same State NG 1)”, for which the “apparent KD of MS2 coat protein” value (input ligand: FMN 200 uM) amounted to 150 nM, the “apparent KD of MS2 coat protein” value under setting [4] was found to be 303 nM and the “apparent KD of MS2 coat protein” value (input ligand: none) amounted to 455 nM.

For “AUUGCUUACGCAGGAUAUGAUGCGGAAACUGCGUCAGAAGGGUGAACAGAAUCGUUGCAAGAAGACAUGAGGAUCACCCAUGUC [SameState NG1 #96] (Eterna round: R96, puzzle: Same State NG 1)”, the “apparent KD of MS2 coat protein” value reads like this: (input ligand: FMN 200 uM) 33.9 nM; under setting [4], 33.5 nM; (input ligand: none) 44.4 nM.

In the case of “AUUGCUUUCGCAGGAUAUGAUGCGAAAAUUGCGUCAGAAGGGUGGAGUAUCUCAUUGCAACAGGACAUGAGGAUCACCCAUGUC [SameState NG1 #88] (Eterna round: R96, puzzle: Same State NG 1)”, the “apparent KD of MS2 coat protein” value is 56.7 nM (input ligand: FMN 200 uM), 140 nM under setting [4] and 248 nM (input ligand: none).

For “AUUUUUAAUGCAGGAUAUGAUUAACAUGAGGAUCACCCAUGUGGUGUUGUGAGUAAGGAGAGUGAUCAGAAGGGCAUUUUUUUA [JMF's solution 89] (Eterna round: R96, puzzle: Same State NG 2)”, the “apparent KD of MS2 coat protein” value reads like this: (input ligand: FMN 200 uM) 1010 nM; under setting [4], 554 nM; (input ligand: none) 585 nM.

For the sequence “CAAGAAAACGCAGGAUAUACUCGGGCUACCCGAGUAGAAGGGUGACACAUGAGGAUCACCCAUGUACAUAGCAUUAGCUAUGGA [Onedve] (Eterna round: R96, puzzle: Same State NG 1)”, the “apparent KD of MS2 coat protein” value is 2270 nM (input ligand: FMN 200 uM), 827 nM under setting [4] and 770 nM (input ligand: none).

Regarding “CACAAUCUAUCUGAGGAUAUCAUGAAAAAAACAUGAGGAUCACCCAUGUGCAGGAAAACUGCAUAUGAGAAGGCAGAUAGAUUGG [salish99_SS2_r3_014] (Eterna round: R96, puzzle: Same State 2)”, the “apparent KD of MS2 coat protein” value under setting [4] turned out to be 504 nM.

On to “CACAAUCUAUCUGAGGAUAUCAUGAAAAAAACAUGAGGAUCACCCAUGUGCAGGAAAACUGCAUAUGAGAAGGCAGAUAGAUUGG [salish99_SS2_r3_014] (puzzle: Same State 2)”, for which the “apparent KD of MS2 coat protein” value is 29.7 nM under setting [1], 577 nM under setting [2] and 1090 nM under setting [3].

Turning to “CACGUCUAGGUAGGAUAUGAGGUGCCACAGGGAAAAGCCUAUGGACAUGAGGAUCACCCAUGUCCUCAGAAGGGCCAGACGUGA [Inzala] (Eterna round: R96, puzzle: Same State NG 2)”, the “apparent KD of MS2 coat protein” value reads like this: (input ligand: FMN 200 uM) 25.9 nM; under setting [4], 36.9 nM; (input ligand: none) 52.4 nM.

With “CAGCACUGUCGAGAGGAUAUGCGGUGAUGGACAUGAGGAUCACCCAUGUUAGCGACAGCAUCACGGCAGAAGGCUCUGCUGCUGC [Soteed Omei mod 36] (puzzle: Same State 2)”, the “apparent KD of MS2 coat protein” value under setting [2] came out at 47.7 nM.

With “CAGCGCUGUCGAGAGGAUAUGCGGUGAUGGACAUGAGGAUCACCCAUGUUAGCGGUAGCAUUACGGUAGAAGGCUCUACAGCUGC [Soteed - 3] (puzzle: Same State 2)”, the “apparent KD of MS2 coat protein” value under setting [2] came out at 24.7 nM.

For the sequence “CCGUUCAAUAAACAUGAGGAUCACCCAUGUUAUAAUAUGGGUGAGGAUAUGCAUCUGAAACAGGUGCAGAAGGCAUAAGAGCGG [JL SSNG3 3.92] (Eterna round: R96, puzzle: Same State NG 3)”, the “apparent KD of MS2 coat protein” value (input ligand: FMN 200 uM) came to 214 nM, the “apparent KD of MS2 coat protein” value under setting [4] is 37.7 nM and the “apparent KD of MS2 coat protein” value (input ligand: none) turned out to be 100 nM.

For “CCUUAACAUGAGGAUCACCCAUGUAACAAGGAGUAAGGAUAUACAUGGGAAAACAGUCAUGUAGAAGGUACAAAAG [Rexereon] (puzzle: Same State 1)”, the “apparent KD of MS2 coat protein” value by setting is: under setting [1], 15 nM; under setting [2], 11.8 nM; under setting [3], 18 nM.

For the sequence “CGCCAGAGAGCAGGAUAUGGGCCACGGCCUAAGGGCUGUGAACUCACAUGAGGAUCACCCAUGUCCCAGAAGGGCUCCUGGCGG [Veatzain] (Eterna round: R96, puzzle: Same State NG 2)”, the “apparent KD of MS2 coat protein” value by setting is: (input ligand: FMN 200 uM) 62.4 nM; under setting [4], 1240 nM; (input ligand: none) 2110 nM.

“CGCCAGAGAGCAGGAUAUGGGCCACGGCCUAAGGGCUGUGAACUCACAUGAGGAUCACCCAUGUCCCAGAAGGGCUCCUGGCUA [Temabeanan] (Eterna round: R96, puzzle: Same State NG 2)”: the “apparent KD of MS2 coat protein” value stood at 112 nM (input ligand: FMN 200 uM), 1020 nM under setting [4] and 1180 nM (input ligand: none).

Regarding “CGGACUCCCUUAGGAUAUGGGAAAGGAAGUGUACCAGAAGGAAGGGUUCCGAUCCUCCAACAUGAGGAUCACCCAUGUAUGAGG [PowerStrip SSNG 1.3] (Eterna round: R96, puzzle: Same State NG 1)”, the “apparent KD of MS2 coat protein” value (input ligand: FMN 200 uM) stood at 16.3 nM, the “apparent KD of MS2 coat protein” value under setting [4] was found to be 21.3 nM and the “apparent KD of MS2 coat protein” value (input ligand: none) was 22.6 nM.
